These results are taken from US20170306005A1 (NASCIENT, published 2017).

Numbering of substitutions follows the chain as printed.

The target of experiment [1] is T1, mouse tenascin-C rCd4-His-FBG (rat; mouse, UniProt P05540 207-392, limits assumed).
T1 construct: domain: domains 3 and 4; C-terminal FBG fusion; biotinylated in the ELISA screen; also called Mu TNC; mouse TNC rCd4-His-FBG; not shown: 6His tag
T1 sequence (chain (part 1 of 2)): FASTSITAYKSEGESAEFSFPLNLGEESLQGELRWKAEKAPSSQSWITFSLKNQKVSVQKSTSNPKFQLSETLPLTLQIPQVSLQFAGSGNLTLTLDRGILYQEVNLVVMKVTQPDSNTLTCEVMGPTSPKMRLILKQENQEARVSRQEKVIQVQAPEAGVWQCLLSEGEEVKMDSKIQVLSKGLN
T1 sequence (chain (part 2 of 2)): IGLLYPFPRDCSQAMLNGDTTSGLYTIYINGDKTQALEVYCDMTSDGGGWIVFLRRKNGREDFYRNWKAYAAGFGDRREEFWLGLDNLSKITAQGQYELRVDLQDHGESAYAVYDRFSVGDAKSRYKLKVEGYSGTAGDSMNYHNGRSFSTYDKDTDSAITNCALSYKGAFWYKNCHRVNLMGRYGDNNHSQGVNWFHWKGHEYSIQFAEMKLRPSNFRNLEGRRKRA
The experiment can be described thus: SPR, captured Fab, 25 C. The protocol: (§1) Experiments were performed using a BIAcore T100 instrument with CM5 sensor chip according to the protocol provided with the Human Fab Capture Kit (GE, 28-9583-25). […] After reference signal subtraction, the data was fitted to a global 1:1 fit using the T100 BIAevaluation software (FIGS. 6 a-d).

For experiment [2], the target named is T2, human tenascin-C rCd4-His-FBG (rat; human, UniProt P05540 207-392, limits assumed).
T2 construct: domain: domains 3 and 4; C-terminal FBG fusion; biotinylated in the ELISA and HTRF screens; also called Hu TNC; human TNC rCd4-His-FBG; not shown: 6His tag
T2 sequence (chain (part 1 of 2)): T1 sequence (chain (part 1 of 2))
T2 sequence (chain (part 2 of 2)): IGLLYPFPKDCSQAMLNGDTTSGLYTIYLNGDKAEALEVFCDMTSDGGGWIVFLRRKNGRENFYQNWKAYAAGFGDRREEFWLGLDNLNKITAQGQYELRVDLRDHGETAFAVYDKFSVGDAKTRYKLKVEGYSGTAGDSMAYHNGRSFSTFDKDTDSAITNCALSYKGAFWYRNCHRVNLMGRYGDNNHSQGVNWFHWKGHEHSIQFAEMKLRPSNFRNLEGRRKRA
Briefly: SPR, captured Fab, 25 C. As to the method: as §1
(In general: In SPR one partner is held on a chip, and binding of the other changes the refractive index at the surface.)

The target in experiment [3] is T3, rat tenascin-C rCd4-His-FBG (rat, UniProt P05540 207-392, limits assumed).
T3 construct: domain: domains 3 and 4; C-terminal FBG fusion; also called Rat TNC; rat TNC rCD4-His-FBG; not shown: 6His tag
T3 sequence (chain (part 1 of 2)): T1 sequence (chain (part 1 of 2))
T3 sequence (chain (part 2 of 2)): T1 sequence (chain (part 2 of 2)) with A72T
The experiment can be described thus: SPR, captured Fab, 25 C. As to the method:
as §1

Experiment [4] addresses T4, human tenascin-R rCd4-His-FBG (rat; human, UniProt P05540 207-392, limits assumed).
T4 construct: domain: domains 3 and 4; C-terminal FBG fusion; also called Hu TNR; human TNR rCd4-His-FBG; not shown: 6His tag
T4 sequence (chain (part 1 of 2)): T1 sequence (chain (part 1 of 2))
T4 sequence (chain (part 2 of 2)): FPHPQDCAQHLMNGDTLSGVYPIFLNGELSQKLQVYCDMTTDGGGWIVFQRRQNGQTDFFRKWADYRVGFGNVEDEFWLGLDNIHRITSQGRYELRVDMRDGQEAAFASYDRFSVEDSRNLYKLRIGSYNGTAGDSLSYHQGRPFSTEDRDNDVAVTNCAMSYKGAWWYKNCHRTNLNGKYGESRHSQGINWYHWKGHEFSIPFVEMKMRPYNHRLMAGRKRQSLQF
Briefly: SPR, captured Fab, 25 C. The protocol: as §1

For experiment [5], the target named is T2, human tenascin-C rCd4-His-FBG. Briefly: SPR, 25 C.
Experiment [6] deals with T1, mouse tenascin-C rCd4-His-FBG. The experiment can be described thus: SPR steady state, captured Fab, 25 C. As to the method: as §1
The target of experiment [7] is T4, human tenascin-R rCd4-His-FBG. The experiment can be described thus: SPR steady state, captured Fab, 25 C. The protocol: as §1
The next experiment has as its target T5, Human FGB-rCd4.
T5 construct: Not the same construct as m1, which has the FBG at the C terminus; also called human TNC FBG-rCD4; human tenascin-C FBG-rCd4-His (FBG at the N terminus of the rat Cd4 tag); not shown: rat Cd4 (domains 3 and 4) tag, the C-terminal His6 tag and the vector-derived junction residues of pBIOCAM4
T5 chain: T2 sequence (chain (part 2 of 2))
The experiment can be described thus: ELISA (DELFIA), antigen coated on the well, purified Fab at 50 nM, detected with anti-kappa or anti-lambda mAb and Europium-conjugated anti-mouse mAb.

Another experiment deals with T6, human Fc-His-FBG (human, UniProt P24821 1974-2201).
T6 sequence: T2 sequence (chain (part 2 of 2))
The experiment can be described thus: cell-based or functional assay.

Experiment [8] deals with T2, human tenascin-C rCd4-His-FBG. The experiment can be described thus: SPR, 25 C; format not stated; SPR at 25 C.
In experiment [9] the target is T1, mouse tenascin-C rCd4-His-FBG. Briefly: SPR, parental antibody.

B1: Fab B12 (Fab, V domains shown)
VH: QVQLVESGGGLVQPGRSLRLSCAASGFTFDDYAMHWVRQAPGKGLEWVSGISGSGGSTYYADSVKGRFTISRDNAKNSLYLQMNSLRAEDTALYYCAKDISAVPDTFDIWGQGTMVTVSS
VL: DIQMTQSPASLPTPVGDRVTITCRASQYIQGFLNWYQQKPGKAPKLLIYDASNLETGVPSRFSGSGSGTDFTLTISSLQPEDFATYYCQQSYSTPQTFGQGTKVDIKR
notes: monomeric Fab
The Kd is the concentration at which binding is half-saturated. One may read the koff as the first-order rate constant of dissociation. A high value points to fast dissociation. A word on the kon: it is the second-order rate constant of association. Lower therefore signals slower complex formation. With B1, the dissociation constant Kd in experiment [1] came out at 13 nM; in [2], 0.111 nM; in experiment [3] it was 7.9 nM; in experiment [4] it was 33.9 nM; in experiment [6], 18.7 nM; in [7], 36.1 nM. The off-rate constant (koff) was 0.0675 s⁻¹ in experiment [1], 0.0003 s⁻¹ in experiment [2], 0.0748 s⁻¹ in experiment [3] and 0.0473 s⁻¹ in experiment [4]. Besides, the association rate constant (kon) in experiment [1] is 5.22e+06 M⁻¹ s⁻¹; in experiment [2] it was 2.66e+06 M⁻¹ s⁻¹; in experiment [3], 9.46e+06 M⁻¹ s⁻¹; in experiment [4], 1.4e+06 M⁻¹ s⁻¹. Also, in experiment [5], the “fold stronger affinity than 2A5” value was about 100 fold. Besides, in the experiment with Human FGB-rCd4, the binding result is listed as “binds”. For the same molecule, in the experiment with human Fc-His-FBG, the “IC50, inhibition of Fc-His-HuFBG-evoked IL-8 release, THP1-Blue cells” value was found to be 6.9 nM. Also, in the experiment with human Fc-His-FBG, the “IC50, inhibition of Fc-His-HuFBG-evoked alkaline phosphatase, THP1-Blue cells” value amounted to 1.7 nM.

B2: Fab 2A5 (Fab, V domains shown)
VH: EVRLVQSGAEVKKPGASVKVSCKVSGYTLTELSMHWVRQAPGKGLEWMGGFDPEDGETIYAQKFQGRVTMTEDTSTDTAYMELSSLRSEDTAVYYCATAQKETYALTYWGQGTLVTVSS
VL: B1 VL with P14S, K45R, D50A, N53T, E55Q, T56D, S67Y, Q96W, D105E
notes: monomeric Fab
In [1], B2 had a Kd of 78.6 nM, an off-rate (koff) of 0.0347 s⁻¹ and a kon of 441000 M⁻¹ s⁻¹. In [2], this molecule gave a Kd of 11.4 nM, an off-rate (koff) of 0.00563 s⁻¹ and an association rate constant (kon) of 496000 M⁻¹ s⁻¹. The affinity in experiment [8], expressed as Kd, was 15 nM. Further, the “fold difference in affinity between human and mouse rCd4-his-FBG” value in [9] turned out to be 6.9 fold. In addition, the binding result in the experiment with Human FGB-rCd4 is on record as “binds”. In addition, in the experiment with human Fc-His-FBG, the “IC50, inhibition of Fc-His-HuFBG-evoked IL-8 release, THP1-Blue cells” value was found to be 28.5 nM and the “IC50, inhibition of Fc-His-HuFBG-evoked alkaline phosphatase, THP1-Blue cells” value was found to be 20.6 nM.
